Laboratory results from patent US20130331552A1.

Target: recombinant influenza HA3-protein (from H3N2, Wyoming, March 2003, Sino Biological Inc.) (influenza H3N2, Wyoming, March 2003)
Experiment: SPR imaging (IBIS MX96), antibody captured on anti-human-IgG chip, HA3 injected at 1 µg/ml, global 1:1 fit

B1: AT10-004 (antibody, V domains shown)
VH: RASQSVSRYLA
VL: RASQSVSRYLA
Kd: 0.07 nM
koff: 1e-06 s⁻¹
kon: 14000 M⁻¹ s⁻¹
